Experimental data as given in publication PMC4301871 (2015).
Several values for one entry are separate records, joined by “and”; a condition that tells them apart may be missing. Identical values can stand only once. Each block holds one binder with its values, some of them ahead of it.

Columns and labels:
Experiment in all cases: ITC
LATS2 = target: T1, LATS2 (Homo sapiens)
T1 chain: RRCPPPPYPKHL

LATS1-a = target: T2, LATS1-a (Homo sapiens)
T2 chain: NRQPPPPYPLTA

PTCH1-b = target: T3, PTCH1-b (Homo sapiens)
T3 chain: EGLWPPPYRPRR

PTCH1-a = target: T4, PTCH1-a (Homo sapiens)
T4 chain: RYSPPPPYSSHS

LATS1-b = target: T5, LATS1-b (Homo sapiens)
T5 chain: YQGPPPPYPKHL

Kd (LATS2): 9.2 µM
Kd (LATS1-a): 33.4 µM
Kd (PTCH1-b): 16.9 µM
Kd (PTCH1-a): 47.4 µM and 24.7 µM
B1: YAP-WW1-WW2 165-271 (protein)
chain: FEIPDDVPLPAGWEMAKTSSGQRYFLNHIDQTTTWQDPRKAMLSQMNVTAPTSPPVQQNMMNSASGPLPDGWEQAMTQDGEIYYINHKNKTTSWLDPRLDPRFAMNQ

Kd (LATS2): 8.2 µM
Kd (LATS1-a): 27 µM
Kd (LATS1-b): 33.9 µM
Kd (PTCH1-a): 45.8 µM
B2: YAP-WW2 228-271 (peptide)
chain: ASGPLPDGWEQAMTQDGEIYYINHKNKTTSWLDPRLDPRFAMNQ

Kd (LATS2): 7.1 µM
Kd (LATS1-a): 21.5 µM
Kd (PTCH1-b): 13.2 µM
Kd (LATS1-b): 3.7 µM
Kd (PTCH1-a): 27.6 µM
B3: YAP-WW1 165-209 (peptide)
chain: FEIPDDVPLPAGWEMAKTSSGQRYFLNHIDQTTTWQDPRKAMLSQ
